Results published in US20190015518A1, “DRUG DELIVERY COMPOSITIONS AND METHODS” (priority 2016, published 2019).

Experiments:
[1] = Pharmacokinetics in a healthy dog, oral sub-mucosa injection (SAAM II model); type: in vivo
Method: Pharmacokinetics of HA-Lys-Pt were determined in a healthy dog by Xenometrics LLC (Stillwell, Kans.). […] After each injection, 2-mL serum samples were collected at 0, 0.25, 1, 2, 6, 24, 48, 96, and 168 hours. […] The samples were frozen at −80° C. until ICP-MS analysis. Prior to analysis, serum and urine samples were diluted 250 and 500-fold using 1% HNO3, respectively. The platinum calibration curve contained 4 replicates of 6 concentrations (0, 1, 10, 20, 40, and 50 ppb). The internal standard was bismuth at 50 ppb.
The pharmacokinetics of the HA-Lys-Pt was measured using the serum and urine samples. The data was modeled using SAAM II software with a four compartmental model.
As indicated by the model, q1, q2, q3, and q4 represent the central blood compartment, the body/tissue compartment, the injection site, and the urine compartment, respectively. The syringe represents the dose that was given to the injection site compartment. The two red circles indicate the two sampling sources, the serum from the q1 (s1), and the urine from the q4 (s2). Furthermore, five transfer rate constants and one loss rate constant were applied to the model to link the compartments and their individual differential equations for data analysis and simulation. The assignment of rate constants and pharmacokinetic interpretation has been discussed previously. The calculated PK parameters including AUC, clearance, volume of distribution at steady state (Vss), elimination half-lives (te), and transfer rate constants, are listed in Table 3.

[2] = Urinalysis of a healthy dog given 1.5 mg/kg on day 1 and 2.0 mg/kg on day 70, sub-mucosa; type: in vivo
Method: Before each dose, the dog was examined by clinical chemistry, hematology, and urinalysis. Additional examinations of clinical chemistry and hematology were performed on days 7, 14, and 42 after the first dose. Additional tests of urinalysis were performed on days 7 and 14 after the first dose. The potential drug-induced toxicities were monitored for 56 days after the second dose. Specifically, clinical chemistry and urinalysis were performed on days 7, 14, 21, and 56, and hematology was performed on days 7, 14, and 56 after the second dose to evaluate the tolerability and toxicity of the formulation.
Urianlyses were performed at pre- and post-dose for both injections. The injections were given via the sub-mucosa in the mouth.

[3] = tested on: A2058 (human melanoma) cells; assay: Anti-proliferative activity (Resazurin Blue, 72 hours); type: cell-based; conditions: mean ± S.E.M., cisplatin basis
Method: (§1) MDA-1986 (human head and neck squamous cell carcinoma), 4T1.2-neu (murine breast cancer cells), and A2058 (human melanoma) cells were maintained in Dulbecco's Modified Eagle Medium (DMEM, Corning, Manassas, Va.) with 4.5 g/L glucose, 4.5 g/L L-glutamine, and 10% fetal bovine serum in a humidified incubator at 37° C. and 5% CO2. Cells were seeded into 96-well plates (3,000 cells/well in 90 μL media) and allowed to attach overnight. […] Resazurin Blue (Acros Organics, Geel, Belgium) in PBS was added to each well (5-μM final concentration; 10-μL addition) and incubated at 37° C. for 4 hours. Fluorescence (λex 550 nm, λem 605 nm) was quantified with a SpectraMax Gemini XS plate-reader (Molecular Devices, Sunnyvale, Calif.). The relative growth of cells incubated with each compound concentration was normalized to vehicle-treated controls (100% proliferation). Data from at least three separate experiments performed in duplicate was analyzed using non-linear regression (GraphPad Prism 5.0) to generate IC50 values.

[4] = tested on: MDA-1986 (human head and neck squamous cell carcinoma) cells; assay: as above; type: cell-based; conditions: listed as HA-Lys-Pt 75 kDa
Method: as §1

Plasma Pt quantitation = conditions: s.c. 10 mg/kg, between 24 and 72 hours
Method: Whole blood was centrifuged (1500×g, 5 min., 4° C., no brake). Top layer (plasma) and middle layer (white blood cells) were transferred to new tubes. Plasma was frozen (−20° C.) until analysis. […] The white blood cell pellet was washed twice with cold PBS and re-suspended in 9 mL of white blood cell buffer (10-mM Tris, pH 7.4, 2.3% NaCl, 2-mM EDTA), and 900 μL of 1.1-M NH4HCO3, 900 μL of 10% SDS, and 75 μL of 2% Proteinase K were added and incubated at 42° C. overnight. Then, 3.3 mL of 5-M NaCl was added, samples shaken vigorously, and centrifuged twice (3200×g, 5 min, 4° C.), each time discarding the pellet. DNA was pelleted with 20 mL of ice-cold 100% ethanol and centrifuged (3200×g, 5 min, 4° C.); the DNA pellet was washed twice with 75% ethanol, re-suspended in water, and quantitated. DNA was digested in 1% HNO3 (800 μL total volume) overnight at 70° C. DNA samples were diluted 1:10 in 1% HNO3 and plasma samples were diluted 1:10,000 in 1% HNO3. Diluted samples were analyzed for Pt content using ICP-MS with a calibration curve from 1-1000 ppt.

HA-cis-[Pt(NH3)2(N^α-Acetyl-L-Lysine)] [75HA-Lys-Pt]
Clearance ([1]; 1st dose […]): 0.017 L/h/kg
Tmax ([1]; 1st dose […]): 6 h
Vss ([1]; 1st dose […]): 7.4 L/kg
AUC ([1]; 2nd dose 2.0 mg/kg): 218 µg·h/mL
Clearance ([1]; 2nd dose 2.0 mg/kg): 0.0092 L/h/kg
Cmax ([1]; 2nd dose 2.0 mg/kg): 3.437 µg/mL
Tmax ([1]; 2nd dose 2.0 mg/kg): 14.4 h
Vss ([1]; 2nd dose 2.0 mg/kg): 2.5 L/kg
Urobilinogen ([2]; 2 mg/kg, 7 days after): 0.2 E.U./dL
urine Bilirubin ([2]; 2 mg/kg, 7 days after): Moderate
urine Blood ([2]; 2 mg/kg, 7 days after): Negative
urine Clarity ([2]; 2 mg/kg, 7 days after): Clear
urine Color ([2]; 2 mg/kg, 7 days after): Dark Yellow
urine Glucose ([2]; 2 mg/kg, 7 days after): Negative
urine Ketones ([2]; 2 mg/kg, 7 days after): Negative
urine Leukocytes ([2]; 2 mg/kg, 7 days after): Negative
urine Nitrite ([2]; 2 mg/kg, 7 days after): Negative
urine Protein ([2]; 2 mg/kg, 7 days after): 30 mg/dL
urine Specific Gravity ([2]; 2 mg/kg, 7 days after): 1.053
urine pH ([2]; 2 mg/kg, 7 days after): 7.0
Urobilinogen ([2]; 2 mg/kg, 14 days after): 0.2 E.U./dL
urine Bilirubin ([2]; 2 mg/kg, 14 days after): Negative
urine Blood ([2]; 2 mg/kg, 14 days after): Large
urine Clarity ([2]; 2 mg/kg, 14 days after): Clear
urine Color ([2]; 2 mg/kg, 14 days after): Light Yellow
urine Glucose ([2]; 2 mg/kg, 14 days after): 100 mg/dL
urine Ketones ([2]; 2 mg/kg, 14 days after): Negative
urine Leukocytes ([2]; 2 mg/kg, 14 days after): Negative
urine Nitrite ([2]; 2 mg/kg, 14 days after): Negative
urine Protein ([2]; 2 mg/kg, 14 days after): ≥300 mg/dL
urine Specific Gravity ([2]; 2 mg/kg, 14 days after): 1.010
urine pH ([2]; 2 mg/kg, 14 days after): 7.5
Urobilinogen ([2]; 2 mg/kg, 21 days after): 1.0 E.U./dL
urine Bilirubin ([2]; 2 mg/kg, 21 days after): Moderate
urine Blood ([2]; 2 mg/kg, 21 days after): Small
urine Clarity ([2]; 2 mg/kg, 21 days after): Clear
urine Color ([2]; 2 mg/kg, 21 days after): Dark Orange
urine Glucose ([2]; 2 mg/kg, 21 days after): Negative
urine Ketones ([2]; 2 mg/kg, 21 days after): Trace
urine Leukocytes ([2]; 2 mg/kg, 21 days after): Negative
urine Nitrite ([2]; 2 mg/kg, 21 days after): Negative
urine Protein ([2]; 2 mg/kg, 21 days after): 30 mg/dL
urine Specific Gravity ([2]; 2 mg/kg, 21 days after): 1.044
urine pH ([2]; 2 mg/kg, 21 days after): 7.0
Urobilinogen ([2]; 2 mg/kg, 56 days after): 1.0 E.U./dL
urine Bilirubin ([2]; 2 mg/kg, 56 days after): Moderate
urine Blood ([2]; 2 mg/kg, 56 days after): Large
urine Clarity ([2]; 2 mg/kg, 56 days after): Clear
urine Color ([2]; 2 mg/kg, 56 days after): Dark Orange
urine Glucose ([2]; 2 mg/kg, 56 days after): Negative
urine Ketones ([2]; 2 mg/kg, 56 days after): Negative
urine Leukocytes ([2]; 2 mg/kg, 56 days after): Negative
urine Nitrite ([2]; 2 mg/kg, 56 days after): Negative
urine Protein ([2]; 2 mg/kg, 56 days after): 30 mg/dL
urine Specific Gravity ([2]; 2 mg/kg, 56 days after): 1.030
urine pH ([2]; 2 mg/kg, 56 days after): 8.0
Urobilinogen ([2]; […], 7 days after): 0.2 E.U./dL
urine Bilirubin ([2]; […], 7 days after): Negative
urine Blood ([2]; […], 7 days after): Negative
urine Clarity ([2]; […], 7 days after): Cloudy
urine Color ([2]; […], 7 days after): Yellow
urine Glucose ([2]; […], 7 days after): Negative
urine Ketones ([2]; […], 7 days after): Negative
urine Leukocytes ([2]; […], 7 days after): Negative
urine Nitrite ([2]; […], 7 days after): Negative
urine Protein ([2]; […], 7 days after): Negative
urine Specific Gravity ([2]; […], 7 days after): 1.023
urine pH ([2]; […], 7 days after): 8.0
Urobilinogen ([2]; […], 14 days): 0.2 E.U./dL
urine Blood ([2]; […], 14 days): Large
urine Clarity ([2]; […], 14 days): Cloudy
urine Color ([2]; […], 14 days): Yellow
urine Glucose ([2]; […], 14 days): Negative
urine Ketones ([2]; […], 14 days): Negative
urine Leukocytes ([2]; […], 14 days): Negative
urine Nitrite ([2]; […], 14 days): Negative
urine Protein ([2]; […], 14 days): 30 mg/dL
urine Specific Gravity ([2]; […], 14 days): 1.038
urine pH ([2]; […], 14 days): 6.5
long-term renal damage ([2]; healthy dog): did not appear to cause long-term renal damage
IC50 [3]: 69.8 ± 7 µM
IC50 ([4]; mean ± S.E.M., cisplatin basis): 39.8 ± 4.4 µM
IC50 ([4]; text b180): ~21 µM
plasma Pt plateau concentration (Plasma Pt quantitation): 4-5 μg Pt/mL plasma
